Experimental findings from patent publication US20260125469A1 (Hoffmann-La Roche, published 2026) are described below.

In experiment [1] the target is T1, Human CD3ε stalk-Fc(knob)-Avi/CD3δ stalk-Fc(hole) (human).
T1 construct: Heterodimer of CD3 delta and CD3 epsilon ectodomains fused to human Fc with knob-into-hole; also called human CD3ε/δ; CD3 antigen
The experiment is described as follows: SPR, TCB captured by anti-PG antibody, antigen as analyte, 25°C. The source says: (§1) For affinity measurements, TCB molecules were captured on a C1 sensorchip (GE Healthcare) surface with immobilized anti-Fc(P329G) IgG (an antibody that specifically binds human IgG₁ Fc(P329G); “anti-PG antibody”—see WO 2017/072210, incorporated herein by reference). The experimental setup is schematically depicted in FIG. 3. Capture IgG was coupled to the sensorchip surface by direct immobilization of around 400 resonance units (RU) using the standard amine coupling kit (GE Healthcare Life Sciences).
(§2) To analyze the interaction to CD3, TCB molecules were captured for 80 s at 25 nM with a flow rate of 10 μl/min. […] The dissociation was monitored for 800 s.
(§3) Kinetic constants were derived using the Biacore T200 Evaluation Software (GE Healthcare Life Sciences), to fit rate equations for 1:1 Langmuir binding by numerical integration. The half-life (t_{1/2}) of the interaction was calculated using the formula t_{1/2}=ln2/koff.

Experiment [2] concerns the target T1, Human CD3ε stalk-Fc(knob)-Avi/CD3δ …. The experiment is described as follows: SPR on immobilized human CD3ε/δ after stress, relative to sample kept at -80°C pH 6. On the procedure:
In order to assess the effect of the deamidation site removal and its effect on the stability of the antibodies, the optimized anti-CD3 antibodies (in TCB format) were incubated for 14 days at 37° C., pH 7.4 and at 40° C., pH 6 and further analyzed by SPR for their binding capability to human CD3ε/δ. Samples stored at −80° C. pH 6 were used as reference. The reference samples and the samples stressed at 40° C. were in 20 mM His, 140 mM NaCl, pH 6.0, and the samples stressed at 37° C. in PBS, pH 7.4, all at a concentration of 1.0 mg/ml. After the stress period (14 days) samples in PBS were dialyzed back to 20 mM His, 140 mM NaCl, pH 6.0 for further analysis.
All SPR experiments were performed on a Biacore T200 instrument (GE Healthcare) at 25° C. with HBS-P+ (10 mM HEPES, 150 mM NaCl pH 7.4, 0.05% Surfactant P20) as running and dilution buffer. Biotinylated human CD3ε/δ (see Example 3, SEQ ID NOs 41 and 42) as well as biotinylated anti-huIgG (Capture Select, Thermo Scientific, #7103262100) were immobilized on a Series S Sensor Chip SA (GE Healthcare, #29104992), resulting in surface densities of at least 1000 resonance units (RU). Anti-CD3 antibodies with a concentration of 2 μg/ml were injected for 30 s at a flow rate of 5 μl/min, and dissociation was monitored for 120 s. The surface was regenerated by injecting 10 mM glycine pH 1.5 for 60 s. Bulk refractive index differences were corrected by subtracting blank injections and by subtracting the response obtained from a blank control flow cell. For evaluation, the binding response 5 seconds after injection end was taken. To normalize the binding signal, the CD3 binding was divided by the anti-huIgG response (the signal (RU) obtained upon capture of the CD3 antibody on the immobilized anti-huIgG antibody). The relative binding activity was calculated by referencing each temperature stressed sample to the corresponding, non-stressed sample.

Experiment [3] addresses T2, Cynomolgus CD3ε stalk-Fc(knob)-Avi/CD3δ stalk-Fc(hole) (cynomolgus).
T2 construct: also called cynomolgus CD3ε/δ
The experiment is described as follows: SPR, TCB captured by anti-PG antibody, antigen as analyte, 25°C.
Description: as §1, §2, §3
Background: Surface plasmon resonance follows binding to a sensor surface in real time, without labels.

B1: TYRP1-TCB with the parental CD3 binder CD3orig (bispecific antibody, human IgG1, kappa, L234A L235A)
heavy 1: not shown
heavy 2: QVQLVQSGAEVKKPGASVKVSCKASGFNIKDYFLHWVRQAPGQGLEWMGWINPDNGNTVYAQKFQGRVTMTADTSTSTVYMELSSLRSEDTAVYYCTRRDYTYEKAALDYWGQGTLVTVSSASTKGPSVFPLAPSSKSTSGGTAALGCLVEDYFPEPVTVSWNSGALTSGVHTFPAVLQSSGLYSLSSVVTVPSSSLGTQTYICNVNHKPSNTKVDEKVEPKSCDKTHTCPPCPAPEAAGGPSVFLFPPKPKDTLMISRTPEVTCVVVDVSHEDPEVKFNWYVDGVEVHNAKTKPREEQYNSTYRVVSVLTVLHQDWLNGKEYKCKVSNKALGAPIEKTISKAKGQPREPQVCTLPPSRDELTKNQVSLSCAVKGFYPSDIAVEWESNGQPENNYKTTPPVLDSDGSFFLVSKLTVDKSRWQQGNVFSCSVMHEALHNHYTQKSLSLSP
light 1: DIQMTQSPSSLSASVGDRVTITCRASGNIYNYLAWYQQKPGKVPKLLIYDAKTLADGVPSRFSGSGSGTDFTLTISSLQPEDVATYYCQHFWSLPFTFGQGTKLEIKRTVAAPSVFIFPPSDRKLKSGTASVVCLLNNFYPREAKVQWKVDNALQSGNSQESVTEQDSKDSTYSLSSTLTLSKADYEKHKVYACEVTHQGLSSPVTKSFNRGEC
light 2: EVQLLESGGGLVQPGGSLRLSCAASGFTFSTYAMNWVRQAPGKGLEWVSRIRSKYNNYATYYADSVKGRFTISRDDSKNTLYLQMNSLRAEDTAVYYCVRHGNFGNSYVSWFAYWGQGTLVTVSSASVAAPSVFIFPPSDEQLKSGTASVVCLLNNFYPREAKVQWKVDNALQSGNSQESVTEQDSKDSTYSLSSTLTLSKADYEKHKVYACEVTHQGLSSPVTKSFNRGEC
notes: Same 2+1 format as m1; also called CD3orig in TCB format
Take B1: in experiment [1], the affinity, expressed as Kd, was 6.54 nM; the koff (as a rule, the rate constant with which the complex falls apart) worked out at 0.00338 s⁻¹; the kon (usually the rate constant with which the complex forms) was determined as 517000 M⁻¹ s⁻¹; the t1/2 amounted to 3.42 min. In addition, in experiment [2], the “binding activity [%] after 2 weeks at pH 6.0/40°C” value worked out at 95% and the “binding activity [%] after 2 weeks at pH 7.4/37°C” value was determined as 65%.

B2: TYRP1-TCB with anti-CD3 antibody clone P035.064 (bispecific antibody, human IgG1, kappa, L234A L235A)
heavy 1: not shown
heavy 2: QVQLVQSGAEVKKPGASVKVSCKASGFNIKDYFLHWVRQAPGQGLEWMGWINPDNGNTVYAQKFQGRVTMTADTSTSTVYMELSSLRSEDTAVYYCTRRDYTYEKAALDYWGQGTLVTVSSASTKGPSVFPLAPSSKSTSGGTAALGCLVEDYFPEPVTVSWNSGALTSGVHTFPAVLQSSGLYSLSSVVTVPSSSLGTQTYICNVNHKPSNTKVDEKVEPKSCDKTHTCPPCPAPEAAGGPSVFLFPPKPKDTLMISRTPEVTCVVVDVSHEDPEVKFNWYVDGVEVHNAKTKPREEQYNSTYRVVSVLTVLHQDWLNGKEYKCKVSNKALGAPIEKTISKAKGQPREPQVCTLPPSRDELTKNQVSLSCAVKGFYPSDIAVEWESNGQPENNYKTTPPVLDSDGSFFLVSKLTVDKSRWQQGNVFSCSVMHEALHNHYTQKSLSLSP
light 1: DIQMTQSPSSLSASVGDRVTITCRASGNIYNYLAWYQQKPGKVPKLLIYDAKTLADGVPSRFSGSGSGTDFTLTISSLQPEDVATYYCQHFWSLPFTFGQGTKLEIKRTVAAPSVFIFPPSDRKLKSGTASVVCLLNNFYPREAKVQWKVDNALQSGNSQESVTEQDSKDSTYSLSSTLTLSKADYEKHKVYACEVTHQGLSSPVTKSFNRGEC
light 2: EVQLLESGGGLVQPGGSLRLSCAASGFDFDNYAMNWVRQAPGKGLEWVSRIRSKHNGYATYYADSVKGRFTISRDDSKNTLYLQMNSLRAEDTAVYYCVRASNFPSSYVSYFGYWGQGTLVTVSSASVAAPSVFIFPPSDEQLKSGTASVVCLLNNFYPREAKVQWKVDNALQSGNSQESVTEQDSKDSTYSLSSTLTLSKADYEKHKVYACEVTHQGLSSPVTKSFNRGEC
notes: human IgG1 Fc, knob-into-hole, P329G L234A L235A; also called P035.064 in TCB format
As to B2, in experiment [1], binding was characterised by a dissociation constant (Kd) of 0.63 nM, the koff was determined as 0.00115 s⁻¹, the kon was 1.83e+06 M⁻¹ s⁻¹ and the t1/2 amounted to 10 min. For the same molecule, in experiment [3], the Kd (in general, the free concentration of one partner at which half of the binding sites on the other are occupied at equilibrium, for simple one-to-one binding) stood at 0.38 nM; the koff is 0.000921 s⁻¹; the kon came out at 2.44e+06 M⁻¹ s⁻¹; the t1/2 is 12.5 min. Moreover, in experiment [2], the “binding activity [%] after 2 weeks at pH 6.0/40°C” value is 97% and the “binding activity [%] after 2 weeks at pH 7.4/37°C” value stood at 96%.

B3: TYRP1-TCB with anti-CD3 antibody clone P021.045 (bispecific antibody, human IgG1, kappa, L234A L235A)
heavy 1: not shown
heavy 2: QVQLVQSGAEVKKPGASVKVSCKASGFNIKDYFLHWVRQAPGQGLEWMGWINPDNGNTVYAQKFQGRVTMTADTSTSTVYMELSSLRSEDTAVYYCTRRDYTYEKAALDYWGQGTLVTVSSASTKGPSVFPLAPSSKSTSGGTAALGCLVEDYFPEPVTVSWNSGALTSGVHTFPAVLQSSGLYSLSSVVTVPSSSLGTQTYICNVNHKPSNTKVDEKVEPKSCDKTHTCPPCPAPEAAGGPSVFLFPPKPKDTLMISRTPEVTCVVVDVSHEDPEVKFNWYVDGVEVHNAKTKPREEQYNSTYRVVSVLTVLHQDWLNGKEYKCKVSNKALGAPIEKTISKAKGQPREPQVCTLPPSRDELTKNQVSLSCAVKGFYPSDIAVEWESNGQPENNYKTTPPVLDSDGSFFLVSKLTVDKSRWQQGNVFSCSVMHEALHNHYTQKSLSLSP
light 1: DIQMTQSPSSLSASVGDRVTITCRASGNIYNYLAWYQQKPGKVPKLLIYDAKTLADGVPSRFSGSGSGTDFTLTISSLQPEDVATYYCQHFWSLPFTFGQGTKLEIKRTVAAPSVFIFPPSDRKLKSGTASVVCLLNNFYPREAKVQWKVDNALQSGNSQESVTEQDSKDSTYSLSSTLTLSKADYEKHKVYACEVTHQGLSSPVTKSFNRGEC
light 2: EVQLLESGGGLVQPGGSLRLSCAASGFTFSSYAMNWVRQAPGKGLEWVSRIRSKYNNYATYYADSVKGRFTISRDDSKNTLYLQMNSLRAEDTAVYYCVRASNFPSSYVSYFAYWGQGTLVTVSSASVAAPSVFIFPPSDEQLKSGTASVVCLLNNFYPREAKVQWKVDNALQSGNSQESVTEQDSKDSTYSLSSTLTLSKADYEKHKVYACEVTHQGLSSPVTKSFNRGEC
notes: human IgG1 Fc, knob-into-hole, P329G L234A L235A; also called P021.045 in TCB format
In experiment [1], B3 registered a dissociation constant (Kd) of 0.43 nM, a koff of 0.00133 s⁻¹, an on-rate constant (kon) of 3.1e+06 M⁻¹ s⁻¹ and a t1/2 of 8.69 min. In experiment [3], the Kd stood at 0.2 nM, the koff is 0.000967 s⁻¹, the kon is 4.88e+06 M⁻¹ s⁻¹ and the t1/2 is 11.9 min. Further, in experiment [2], the “binding activity [%] after 2 weeks at pH 6.0/40°C” value is 99% and the “binding activity [%] after 2 weeks at pH 7.4/37°C” value amounted to 95%.

B4: TYRP1-TCB with anti-CD3 antibody clone P004.042 (bispecific antibody, human IgG1, kappa, L234A L235A)
heavy 1: not shown
heavy 2: QVQLVQSGAEVKKPGASVKVSCKASGFNIKDYFLHWVRQAPGQGLEWMGWINPDNGNTVYAQKFQGRVTMTADTSTSTVYMELSSLRSEDTAVYYCTRRDYTYEKAALDYWGQGTLVTVSSASTKGPSVFPLAPSSKSTSGGTAALGCLVEDYFPEPVTVSWNSGALTSGVHTFPAVLQSSGLYSLSSVVTVPSSSLGTQTYICNVNHKPSNTKVDEKVEPKSCDKTHTCPPCPAPEAAGGPSVFLFPPKPKDTLMISRTPEVTCVVVDVSHEDPEVKFNWYVDGVEVHNAKTKPREEQYNSTYRVVSVLTVLHQDWLNGKEYKCKVSNKALGAPIEKTISKAKGQPREPQVCTLPPSRDELTKNQVSLSCAVKGFYPSDIAVEWESNGQPENNYKTTPPVLDSDGSFFLVSKLTVDKSRWQQGNVFSCSVMHEALHNHYTQKSLSLSP
light 1: DIQMTQSPSSLSASVGDRVTITCRASGNIYNYLAWYQQKPGKVPKLLIYDAKTLADGVPSRFSGSGSGTDFTLTISSLQPEDVATYYCQHFWSLPFTFGQGTKLEIKRTVAAPSVFIFPPSDRKLKSGTASVVCLLNNFYPREAKVQWKVDNALQSGNSQESVTEQDSKDSTYSLSSTLTLSKADYEKHKVYACEVTHQGLSSPVTKSFNRGEC
light 2: EVQLLESGGGLVQPGGSLRLSCAASGFQFDNYAMNWVRQAPGKGLEWVSRIRTKYNEYATYYADSVKGRFTISRDDSKNTLYLQMNSLRAEDTAVYYCVRASNFPQSYVSYFGYWGQGTLVTVSSASVAAPSVFIFPPSDEQLKSGTASVVCLLNNFYPREAKVQWKVDNALQSGNSQESVTEQDSKDSTYSLSSTLTLSKADYEKHKVYACEVTHQGLSSPVTKSFNRGEC
notes: human IgG1 Fc, knob-into-hole, P329G L234A L235A; also called P004.042 in TCB format
In experiment [1], B4 yielded a Kd of 1.54 nM, a koff of 0.00295 s⁻¹, a kon of 1.92e+06 M⁻¹ s⁻¹ and a t1/2 of 3.92 min. In experiment [3], this molecule displayed a Kd of 0.71 nM, a koff of 0.00272 s⁻¹, a kon of 3.85e+06 M⁻¹ s⁻¹ and a t1/2 of 4.25 min. Moreover, in experiment [2], the “binding activity [%] after 2 weeks at pH 6.0/40°C” value is 98% and the “binding activity [%] after 2 weeks at pH 7.4/37°C” value turned out to be 98%.
